Assays:
[1] = molecular target: ACKR3 wild type, Tango assay construct (UniProt P25106)
[2] = molecular target: ACKR3 wild type, expressed in cells for the NanoBiT β-arrestin recruitment assay (UniProt P25106)
[3] = molecular target: ACKR3 wild type, expressed in cells for the NanoBiT β-arrestin recruitment assay (UniProt P25106 1-362); experiment: cell-based or functional assay
Sequence of ACKR3 wild type, expressed in cells for the NanoBiT β-arrestin recruitment assay (UniProt P25106 1-362) (P25106 whole entry): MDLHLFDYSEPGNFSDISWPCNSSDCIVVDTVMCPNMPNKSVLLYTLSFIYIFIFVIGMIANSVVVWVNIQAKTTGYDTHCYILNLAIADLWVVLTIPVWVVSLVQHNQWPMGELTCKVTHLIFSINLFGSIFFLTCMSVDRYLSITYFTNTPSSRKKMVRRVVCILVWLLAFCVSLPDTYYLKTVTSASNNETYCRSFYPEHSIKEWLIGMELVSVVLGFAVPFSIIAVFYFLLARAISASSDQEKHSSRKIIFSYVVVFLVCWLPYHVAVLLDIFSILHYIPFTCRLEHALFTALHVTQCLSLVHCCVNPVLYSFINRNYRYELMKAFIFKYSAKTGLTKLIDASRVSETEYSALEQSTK

Sequence of CXCL12 (P48061 22-93): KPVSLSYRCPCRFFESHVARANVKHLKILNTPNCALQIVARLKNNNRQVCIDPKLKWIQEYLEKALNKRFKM
Sequence of ACKR3 wild type, Tango assay construct (P25106 whole entry): as the sequence (P25106 whole entry) above
Sequence of ACKR3 wild type, expressed in cells for the NanoBiT β-arrestin recruitment assay (UniProt P25106) (P25106 whole entry): as above

| β-arrestin-2 recruitment to ACKR3, Tango assay, EC50 [1] | β-arrestin-2 recruitment to ACKR3, NanoBiT, EC50 [2] | β-arrestin-2 recruitment to ACKR3, NanoBiT, EC50 [3] | Molecule |
| --- | --- | --- | --- |
| 3.9 nM | 0.75 nM | – | CXCL12 (from UniProt P48061 22-93) (ligand) |
| – | – | 4.8 nM | FGGFMRRK [LIH383] |

— article PMC9574477 (Science (New York, N.Y.), 2022)
